Tests used:
[1] = target: T1, GST–human PPARγ (full-length PPARγ–GST fusion protein) (human, UniProt P37231 1-505); assay: pull-down
T1 sequence (looked up): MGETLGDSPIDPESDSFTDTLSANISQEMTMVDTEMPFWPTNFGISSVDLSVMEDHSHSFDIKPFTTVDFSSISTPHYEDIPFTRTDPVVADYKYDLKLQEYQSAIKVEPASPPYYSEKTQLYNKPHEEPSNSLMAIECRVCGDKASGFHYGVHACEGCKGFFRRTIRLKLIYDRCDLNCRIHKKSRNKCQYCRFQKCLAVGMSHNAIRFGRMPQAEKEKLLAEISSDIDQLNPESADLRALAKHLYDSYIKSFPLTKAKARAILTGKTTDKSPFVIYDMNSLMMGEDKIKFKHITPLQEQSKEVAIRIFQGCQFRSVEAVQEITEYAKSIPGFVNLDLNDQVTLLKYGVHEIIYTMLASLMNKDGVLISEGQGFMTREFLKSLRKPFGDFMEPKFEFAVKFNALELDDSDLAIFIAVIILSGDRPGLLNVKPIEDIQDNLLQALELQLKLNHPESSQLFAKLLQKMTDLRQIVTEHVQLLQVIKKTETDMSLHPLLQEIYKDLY

[2] = target: T1, GST–human PPARγ (full-length PPARγ–GST …); assay: pull-down; remark: listed apart in the source

fold binding relative to the vehicle control, with 50 μM FPP [1]: 6.1 fold
fold binding relative to the vehicle control, with 100 μM FPP [1]: 15 fold
fold binding relative to the vehicle control, with 50 μM Pio [2]: 17 fold
B1: SRC-1-S2, a truncated SRC-1 (steroid receptor co-activator-1) protein (amino acids 623–770) (domain or fragment, human, UniProt Q15788 623-770, looked up)
chain: DSKYSQTSHKLVQLLTTTAEQQLRHADIDTSCKDVLSCTGTSNSASANSSGGSCPSSHSSLTERHKILHRLLQEGSPSDITTLSVEPDKKDSASTSVSVTGQVQGNSSIKLELDASKKKESKDHQLLRYLLDKDEKDLRSTPNLSLDD

Source: publication PMC3253524 (Biochemical Journal, 2011)
